Reference: article PMC2174254 (The Journal of Cell Biology, 1999)

Legend:
Assay in all cases: cross-linking
[1] = target: T1, PDI deletion mutant Δ222–302 (S. cerevisiae, UniProt P17967 29-522, Δ222–302, N-glycosylated (endoglycosidase H sensitive))
T1 sequence (looked up): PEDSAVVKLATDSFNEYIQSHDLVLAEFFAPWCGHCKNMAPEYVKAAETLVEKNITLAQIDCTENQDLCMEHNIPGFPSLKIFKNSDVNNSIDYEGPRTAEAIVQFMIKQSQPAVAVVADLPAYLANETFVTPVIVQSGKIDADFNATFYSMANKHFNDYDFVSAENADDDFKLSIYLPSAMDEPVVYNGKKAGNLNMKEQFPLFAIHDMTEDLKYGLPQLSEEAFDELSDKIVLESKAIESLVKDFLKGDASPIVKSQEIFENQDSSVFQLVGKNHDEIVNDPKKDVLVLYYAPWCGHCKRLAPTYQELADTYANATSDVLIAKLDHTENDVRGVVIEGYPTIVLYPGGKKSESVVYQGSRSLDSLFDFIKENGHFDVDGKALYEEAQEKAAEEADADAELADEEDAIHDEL

[2] = target: T2, PDI deletion mutant Δ252–277 (S. cerevisiae, UniProt P17967 29-522, Δ252–277, N-glycosylated (endoglycosidase H sensitive))
T2 sequence (looked up): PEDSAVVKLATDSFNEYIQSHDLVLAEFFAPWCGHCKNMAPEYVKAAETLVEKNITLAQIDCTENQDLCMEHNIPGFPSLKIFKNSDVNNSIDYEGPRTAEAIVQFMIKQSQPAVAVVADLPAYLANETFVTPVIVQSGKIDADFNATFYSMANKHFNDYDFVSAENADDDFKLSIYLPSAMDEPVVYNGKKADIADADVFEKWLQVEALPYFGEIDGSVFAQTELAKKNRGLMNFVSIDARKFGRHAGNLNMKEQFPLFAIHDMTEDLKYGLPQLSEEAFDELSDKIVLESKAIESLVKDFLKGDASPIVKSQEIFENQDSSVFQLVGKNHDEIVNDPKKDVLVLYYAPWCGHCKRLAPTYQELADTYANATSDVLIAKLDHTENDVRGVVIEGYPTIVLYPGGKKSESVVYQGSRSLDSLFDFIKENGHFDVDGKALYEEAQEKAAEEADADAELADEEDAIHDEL

[3] = target: T1, PDI deletion mutant Δ222–302; remark: listed apart in the source
[4] = target: T2, PDI deletion mutant Δ252–277; remark: listed apart in the source

BiP immunoprecipitated relative to wild-type PDI [1]: 2.7 fold
fold reduction of affinity compared with wild-type PDI [2]: ~2.8 fold
fold decrease of BiP coimmunoprecipitated with Δgpαf present against absent [3]: 4.7 fold
fold reduction of BiP coimmunoprecipitated with Δgpαf present against absent [4]: 1.3 fold
B1: BiP, heavy chain binding protein (natural protein)
chain: not shown
